Results on eight molecules are retold here after patent publication US20240294595A1 (ARIZONA BOARD OF REGENTS ON BEHALF OF THE UNIVERSITY OF …, published 2024).

Where no end group is shown, it is not given here. [ ]: non-standard residue; d: D form. The star is where a group is joined. βGlc = OC[C@H]1O[C@@H](*)[C@H](O)[C@@H](O)[C@@H]1O; Nle = CCCC[C@H](N)C(=O)O Bounds are passed on as bounds.

The target in one experiment is T1, VPAC1.
T1 sequence (P32241 whole entry, species assumed, looked up): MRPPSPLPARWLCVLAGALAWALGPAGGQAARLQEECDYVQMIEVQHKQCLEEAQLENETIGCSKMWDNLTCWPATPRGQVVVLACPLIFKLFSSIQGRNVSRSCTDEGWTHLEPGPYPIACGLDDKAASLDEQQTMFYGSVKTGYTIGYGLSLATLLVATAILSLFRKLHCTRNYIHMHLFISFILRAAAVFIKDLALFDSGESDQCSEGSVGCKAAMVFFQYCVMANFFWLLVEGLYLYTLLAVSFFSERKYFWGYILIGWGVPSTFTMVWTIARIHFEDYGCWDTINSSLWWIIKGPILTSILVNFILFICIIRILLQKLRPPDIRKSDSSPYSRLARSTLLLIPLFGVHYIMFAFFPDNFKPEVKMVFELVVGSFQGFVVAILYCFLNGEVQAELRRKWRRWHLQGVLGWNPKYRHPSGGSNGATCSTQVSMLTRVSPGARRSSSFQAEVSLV
The experiment in a line: cell-based or functional assay.

A further experiment has as its target T2, VPAC2.
T2 sequence (P41587 whole entry, species assumed, looked up): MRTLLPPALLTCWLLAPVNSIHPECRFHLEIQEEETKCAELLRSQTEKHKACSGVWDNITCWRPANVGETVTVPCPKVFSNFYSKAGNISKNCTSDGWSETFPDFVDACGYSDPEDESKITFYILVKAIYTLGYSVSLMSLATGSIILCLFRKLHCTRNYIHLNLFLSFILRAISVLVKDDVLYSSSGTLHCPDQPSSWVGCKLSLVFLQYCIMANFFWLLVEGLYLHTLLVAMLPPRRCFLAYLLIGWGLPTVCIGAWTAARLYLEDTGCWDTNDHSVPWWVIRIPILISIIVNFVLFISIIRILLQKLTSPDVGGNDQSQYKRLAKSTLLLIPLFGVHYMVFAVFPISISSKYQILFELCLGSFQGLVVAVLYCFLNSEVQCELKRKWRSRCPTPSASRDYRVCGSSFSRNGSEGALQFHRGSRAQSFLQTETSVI
The experiment in a line: cell-based or functional assay.

B1: HsDGIFADSYSRYRKQÑAVKKYLAAV-Ser(Glc) (peptide)
peptide: HSDGIFADSYSRYRKQXAVKKYLAAVS
modifications: D-Serine at 2 (s); L-Nor-Leucine at 17 (Ñ, written X in letters); Ser 27 = L-Ser(β-D-Glc)
On to B1, for which, in the experiment with VPAC1, the “EC50 (agonist)” value was found to be 1370 nM and the “EMax (agonist)” value amounted to 85%.

B2: HsDGIFTDSYSRYRKQÑAVKKYLAAVL-Ser(Glc) (peptide)
peptide: HSDGIFTDSYSRYRKQXAVKKYLAAVLS
modifications: D-Serine at 2 (s); L-Nor-Leucine at 17 (Ñ, written X in letters); Ser 28 = L-Ser(β-D-Glc)
B2: the “EC50 (agonist)” value in the experiment with VPAC1 was determined as 1.3 nM; with VPAC2, 241 nM. The results for the “EMax (agonist)” value with VPAC1 and with VPAC2 were 90% and 104%, respectively.

Take H[dS]DGIFTDSYSRYRKQ[Nle]AVKKYLAALS(βGlc)L-NH2 (ends and bridges not checked) [HsDGIFTDSYSRYRKQÑAVKKYLAAL-Ser(Glc)-L]: in the experiment with VPAC1, the “EC50 (agonist)” value amounted to 5.9 nM and the “EMax (agonist)” value amounted to 93%. In the experiment with VPAC2, the “EC50 (agonist)” value was more than 2500 nM and the “EMax (agonist)” value is -95%.

On to H[dS]DGIFADSYSRYRKQ[Nle]AVKKYLAAVS(βGlc)L-NH2 (ends and bridges not checked) [HsDGIFADSYSRYRKQÑAVKKYLAAV-Ser(Glc)-L], for which, in the experiment with VPAC1, the “EC50 (agonist)” value stood at 1620 nM and the “EMax (agonist)” value was 78%.

Regarding HSDGIFTDSYSRYRKQLAVKKYLAAVLS(melibiose)-NH2 [HSDGIFTDSYSRYRKQLAVKKYLAAVL-Ser(Mel)], in the experiment with VPAC1, the “EC50 (agonist)” value worked out at 0.55 nM and the “EMax (agonist)” value was 102%. In the experiment with VPAC2, the “EC50 (agonist)” value amounted to 9.4 nM and the “EMax (agonist)” value stood at 86%.

For HSDGIFTDSYSRYRKQMAVKKYLAAVL (ends and bridges not checked) [PACAP1-27], the “EMax (agonist)” value with VPAC1 was 100%.

B3: HsDGIFADSYSRYRKQÑAVKKYLAAVL-Ser(Glc) (peptide)
peptide: HSDGIFADSYSRYRKQXAVKKYLAAVLS
modifications: D-Serine at 2 (s); L-Nor-Leucine at 17 (Ñ, written X in letters); Ser 28 = L-Ser(β-D-Glc)
In the case of B3, in the experiment with VPAC1, the “EC50 (agonist)” value amounted to 78.8 nM and the “EMax (agonist)” value was 93%. Also, in the experiment with VPAC2, the “EC50 (agonist)” value is more than 2500 nM and the “EMax (agonist)” value is -42%.

B4: HsDGIFTDSYSRYRKQÑAVKKYLAAV-Ser(Glc) (peptide)
peptide: HSDGIFTDSYSRYRKQXAVKKYLAAVS
modifications: D-Serine at 2 (s); L-Nor-Leucine at 17 (Ñ, written X in letters); Ser 27 = L-Ser(β-D-Glc)
For B4, the “EC50 (agonist)” value is 4.8 nM with VPAC1 and 654 nM with VPAC2. Further, the entries for the “EMax (agonist)” value with VPAC1 and in the experiment with VPAC2 were 90% and 107%, respectively.
